Tests used:
[1] = target: fully MJ activated Cry1Ia toxin (Bacillus thuringiensis (strain IE-1)); test: SEC; Superdex-200 10/300 GL, carbonate buffer (50 mM Na2CO3, 100 mM NaCl) pH 10.5; oligomeric state from the molecular weight of the eluted peaks against standards
[2] = target: fully trypsin activated Cry1Ia toxin (Bacillus thuringiensis (strain IE-1)); test: as above
[3] = target: Cry1Ia38 protoxin (Bacillus thuringiensis (strain IE-1)); test: as above
[4] = target: Cry1Ia38 protoxin (Bacillus thuringiensis (strain IE-1)); test: SDS-PAGE of samples heated at 50 °C, Western blot; 5 µg Cry1Ia protein incubated with 2 µg O. nubilalis BBMV in 50 µl carbonate buffer pH 10.5 at 37 °C (5-30 min); BBMV pellet heated at 50 °C for 3 min, 10% SDS-PAGE, polyclonal anti-Cry1Ia
[5] = target: Cry1Ia38 protoxin (Bacillus thuringiensis (strain IE-1)); test: SDS-PAGE of samples heated at 50 °C, Western blot; control without BBMV: Cry1Ia protein incubated in carbonate buffer pH 10.5 at 37 °C, sample heated at 50 °C for 3 min, 10% SDS-PAGE, polyclonal anti-Cry1Ia
[6] = target: partially processed Cry1Ia protoxin (~67 kDa intermediate fragment) (Bacillus thuringiensis (strain IE-1)); test: SDS-PAGE of samples heated at 50 °C, Western blot; 5 µg Cry1Ia protein incubated with 2 µg O. nubilalis BBMV in 50 µl carbonate buffer pH 10.5 at 37 °C (5-30 min); BBMV pellet heated at 50 °C for 3 min, 10% SDS-PAGE, polyclonal anti-Cry1Ia

## fully MJ activated Cry1Ia toxin (domain or fragment)
[1]
  stoichiometry N: 2

## fully trypsin activated Cry1Ia toxin (domain or fragment)
[2]
  stoichiometry N: 2

## Cry1Ia38 protoxin (natural protein)
[3]
  stoichiometry N: 2
[4]
  stoichiometry N: 2
[5]
  stoichiometry N: 2

## partially processed Cry1Ia protoxin (~67 kDa intermediate fragment) (domain or fragment)
[6]
  stoichiometry N: 2
